Source: patent publication US20090075904A1 (CAMPINA NEDERLAND HOLDING B V, published 2009)

Molecular target: T1, Dipeptidyl peptidase IV (DPP-IV) (UniProt P22411 38-766, limits assumed)
Assay: cell-based or functional assay

T1 sequence (P22411 38-766 limits assumed): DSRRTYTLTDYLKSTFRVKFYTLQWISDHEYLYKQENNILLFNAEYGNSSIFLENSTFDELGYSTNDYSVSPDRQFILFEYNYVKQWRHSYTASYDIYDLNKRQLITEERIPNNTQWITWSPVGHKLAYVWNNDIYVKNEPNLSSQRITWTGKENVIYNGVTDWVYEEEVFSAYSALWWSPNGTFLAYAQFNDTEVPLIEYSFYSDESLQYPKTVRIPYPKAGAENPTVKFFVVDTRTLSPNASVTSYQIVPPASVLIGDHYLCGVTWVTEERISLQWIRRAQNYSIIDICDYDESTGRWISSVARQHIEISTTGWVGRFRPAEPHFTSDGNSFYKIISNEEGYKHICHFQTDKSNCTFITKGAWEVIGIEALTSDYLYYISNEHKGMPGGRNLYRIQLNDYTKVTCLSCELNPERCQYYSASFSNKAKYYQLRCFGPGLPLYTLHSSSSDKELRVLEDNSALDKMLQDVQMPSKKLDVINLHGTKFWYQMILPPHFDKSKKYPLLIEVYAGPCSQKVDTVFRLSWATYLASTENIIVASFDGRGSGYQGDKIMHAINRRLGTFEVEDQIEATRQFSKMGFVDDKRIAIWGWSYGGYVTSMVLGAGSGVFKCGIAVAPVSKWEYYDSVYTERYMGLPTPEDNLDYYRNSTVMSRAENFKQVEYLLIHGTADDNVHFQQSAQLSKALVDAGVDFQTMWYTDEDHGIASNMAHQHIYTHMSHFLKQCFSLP

Row | Binder | RELATIVE POTENCY [%] (DPP-IV inhibition assay, Gly-Pro-p-nitroanilide conversion, on-line LC-BCD-MS)
1 | KVLP | 98%
2 | PFP | 20%
3 | IPI | 100%
4 | APFPEVF | 6%
5 | GPFPIIV | 9%
6 | LPVPQ | 28%
7 | EMPFPK | 12%
8 | GPFP | 34%
9 | LPLP | 11%
10 | APFPE | 9%
11 | LPVPQK | 63%
12 | LPVP | 15%
13 | MPLW | 23%
14 | PQSVLS | 20%
15 | LPQYL | 26%
16 | LPL | 100%
17 | VPYPQ | 51%
18 | VPLGTQ | 55%
19 | HPIK | 6%
20 | PLLQ | 37%
21 | YVPEPF | 20%

Molecular target: T1, Dipeptidyl peptidase IV (DPP-IV)
Assay: cell-based or functional assay
Remark: another data set of the same source

Row | Binder | IC50 of DPP-IV inhibition (estimated from relative potency)
22 | IPI | ~5 µM
23 | APFPEVF | ~120 µM
24 | LPL | ~5 µM
25 | HPIK | ~120 µM
